# Data: PMC10143249, “The Non-Canonical Iron-Responsive Element of IRE-tvcp12 Hairpin Structure at the 3′-UTR of Trichomonas vaginalis TvCP12 mRNA That Binds TvHSP70 and TvACTN-3 Can Regulate mRNA Stability and Amount of P”
# T1: TvACTN-3r (alpha-actinin 3) (Trichomonas vaginalis, UniProt X5FVA1 1-1129)
# T1 sequence: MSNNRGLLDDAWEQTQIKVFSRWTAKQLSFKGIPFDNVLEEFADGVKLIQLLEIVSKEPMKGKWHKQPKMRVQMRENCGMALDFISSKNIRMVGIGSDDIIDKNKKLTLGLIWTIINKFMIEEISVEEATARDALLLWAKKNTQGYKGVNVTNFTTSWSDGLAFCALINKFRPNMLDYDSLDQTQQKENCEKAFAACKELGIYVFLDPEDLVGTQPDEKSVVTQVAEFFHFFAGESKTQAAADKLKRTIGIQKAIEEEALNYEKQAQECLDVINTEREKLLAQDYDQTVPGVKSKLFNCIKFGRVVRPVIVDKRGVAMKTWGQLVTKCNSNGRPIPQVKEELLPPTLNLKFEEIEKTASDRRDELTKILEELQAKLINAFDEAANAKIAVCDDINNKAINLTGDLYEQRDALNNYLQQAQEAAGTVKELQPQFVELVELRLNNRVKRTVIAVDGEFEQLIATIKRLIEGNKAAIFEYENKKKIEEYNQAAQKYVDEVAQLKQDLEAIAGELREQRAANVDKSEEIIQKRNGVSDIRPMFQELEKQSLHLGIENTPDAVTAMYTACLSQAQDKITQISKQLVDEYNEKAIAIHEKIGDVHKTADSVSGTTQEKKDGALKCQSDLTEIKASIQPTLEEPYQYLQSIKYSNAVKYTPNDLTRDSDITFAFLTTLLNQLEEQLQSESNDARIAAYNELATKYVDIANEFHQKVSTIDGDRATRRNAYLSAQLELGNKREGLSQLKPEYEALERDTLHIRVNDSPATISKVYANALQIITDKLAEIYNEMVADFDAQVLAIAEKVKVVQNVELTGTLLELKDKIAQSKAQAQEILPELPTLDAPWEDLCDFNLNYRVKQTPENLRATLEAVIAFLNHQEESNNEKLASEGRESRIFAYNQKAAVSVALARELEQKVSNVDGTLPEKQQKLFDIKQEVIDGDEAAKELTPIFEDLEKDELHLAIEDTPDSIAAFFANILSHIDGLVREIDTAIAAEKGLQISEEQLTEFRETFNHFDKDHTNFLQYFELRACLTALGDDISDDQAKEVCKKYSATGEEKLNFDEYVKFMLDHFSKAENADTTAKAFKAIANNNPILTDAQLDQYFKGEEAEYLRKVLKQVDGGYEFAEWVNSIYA
# T2: hIRP-1r (iron regulatory protein 1) (human, UniProt P21399 1-889)
# T2 sequence: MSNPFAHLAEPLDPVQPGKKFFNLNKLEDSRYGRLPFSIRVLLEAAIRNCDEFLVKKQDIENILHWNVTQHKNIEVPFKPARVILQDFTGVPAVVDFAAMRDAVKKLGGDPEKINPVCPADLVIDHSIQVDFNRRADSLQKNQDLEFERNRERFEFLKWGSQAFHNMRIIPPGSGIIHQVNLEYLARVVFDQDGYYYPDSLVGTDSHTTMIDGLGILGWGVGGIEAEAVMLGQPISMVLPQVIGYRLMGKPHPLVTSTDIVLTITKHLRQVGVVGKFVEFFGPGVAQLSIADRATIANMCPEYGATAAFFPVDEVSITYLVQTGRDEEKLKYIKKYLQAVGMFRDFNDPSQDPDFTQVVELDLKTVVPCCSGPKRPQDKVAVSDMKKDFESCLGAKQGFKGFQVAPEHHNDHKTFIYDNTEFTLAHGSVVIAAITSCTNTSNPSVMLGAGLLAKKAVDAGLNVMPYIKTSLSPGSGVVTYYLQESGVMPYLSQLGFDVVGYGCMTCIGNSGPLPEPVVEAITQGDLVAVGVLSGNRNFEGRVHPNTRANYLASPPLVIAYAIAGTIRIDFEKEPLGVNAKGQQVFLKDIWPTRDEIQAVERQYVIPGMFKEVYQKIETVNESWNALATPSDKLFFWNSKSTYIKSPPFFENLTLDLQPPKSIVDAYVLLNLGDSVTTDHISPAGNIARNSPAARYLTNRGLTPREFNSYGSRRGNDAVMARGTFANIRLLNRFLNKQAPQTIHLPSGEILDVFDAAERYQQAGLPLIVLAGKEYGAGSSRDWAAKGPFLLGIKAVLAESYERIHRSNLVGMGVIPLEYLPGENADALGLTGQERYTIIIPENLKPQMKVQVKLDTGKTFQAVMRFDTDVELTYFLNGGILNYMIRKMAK
# Legend:
# [1] = molecular target: T1, TvACTN-3r (alpha-actinin 3); assay: Northwestern blot; REMSA: 20 uL, 0.2 ng 32P-RNA, 1 ug hIRP-1r or 50 ug T. vaginalis extract, 5 ug heparin, 10 min at 25 C, 6% native gel; buffer, salt and pH not given; Northwestern conditions not given; settings: protein: recombinant; label: 32P (alpha-32P UTP); hairpin
# [2] = molecular target: T2, hIRP-1r (iron regulatory protein 1); assay: EMSA; 5 ug heparin; REMSA: 20 uL, 0.2 ng 32P-RNA, 1 ug hIRP-1r or 50 ug T. vaginalis extract, 5 ug heparin, 10 min at 25 C, 6% native gel; buffer, salt and pH not given; Northwestern conditions not given; settings: protein: recombinant; (pGEX plasmid); label: 32P (alpha-32P UTP); hairpin
binder,measurement,setting,value
GGGACGUAUUUAAUUGAUUGCG (structured_RNA) [IRE-tvcp12 (wild type)],binding result,[1],binds
same,binding result,[2],binds
